Assay: soluble on expression in E. coli; label from the status in PepcDB or PDB records

Row | Sequence | soluble on expression in E. coli
1 | MGSDKIHHHHHHYDLSDVNTDDAVMGESWVAPLGMGYVTSDDVVNVEKVPSIREVDGAYVMIYDGEMKIKGKSLRAASDKVEIASEDITTGDIDGLFDGDFVLALTNPHITLKSNVKNASLDCSLSIEAENTSKKEATSSDFTLSTVSPNIWIGPLDPKTDAFKFVKNEKLPGIVQIVPQKIHLSLSADSKQWTNAPADALSELRYAVELPLTPAPEFSAVSVERIEDAFDEDFVDYIFSDGSARIYGEVTNEMPFDMSIEMVIMDENNVPVDIQFPAQEVKGQSGEVIFEITKEDMPKMKDARHIDLNLHLTGRDQGEALKKGQKTTFNLKLKKEGGISI | not soluble
2 | NIPEIENANLKPALKDSVLPDGFYSTTNHPTHVKVNDEWIEVANPKMDAVIVVYPEEKRAETKVIRKVKKGDFVLIGHNGIRVMPPEKSREAGQLFEFMNSEVSSEKPKEAIIKRIAKEMHEIREEYKKTGTGGIAIVGGPAIIHTGGGPALAKMVELGYIQAILAGNALATHDIESALYGTSLGVNIKTAKPVTGGHKHHIYAINAINDAGNIKNAVESGVLKEGIMYQCIKNNIPYVLAGSIRDDGPIPDVITDSMVAQDKMRTTVMDKKMVIMLSTLLHSVATGNLMPSYIKTVCVDIQPSTVTKLMDRGTSQAIGVVTDVGVFLVLLLKELER | not soluble
3 | MSLKYIIGMDVGTTATKGVLYDINGKAVASVSKGYPLIQTKVGQAEEDPKLIFDAVQEIIFDLTQKIDGKIAAISWSSQMHSLIGLGSDDELLTNSITWADNCAKSIVQDAKNRGFAQQIYRKTGMPMHPMAPIYKLLWLKNKKTEVFSQAQKWIGIKEYIIFRLTGKLVTDTTMAAGTGILNLKTLTWDQELLDILKIKKEQLPKIAQPTKVIFPIKTEYVKKLGIDSDTKIILGASDGYLSTIGVNAIDSDHCALNVGTSGAIRTIVDQPKIDPSASYFCYPADKTHYLLGGPVNNGGIVFNWARQTLFDADETPQDFLDVAQTAPAGSRNLIFLPYLGGERAPIWDANARGSFVGLTRMHQKPEMARAVIEGIIFNLYDAASNLIKNTKKPVAINATGGFLKSDFVRQLCANIFNVPIVTMKEQQSGTLAAMFLARQALGLNQDLSEIGQFAQADKVYFPNPKEAATYQKLFPLYCEIRNALAASYGKFSNINEGHHHHHH | soluble
4 | MRRAGLGEGVPPGNYGNYGYANSGYSACEEENERLTESLRSKVTAIKSLSIEIGHEVKTQNKLLAEMDSQFDSTTGFLGLCPM | soluble
5 | MSLQVQKSFKEQTAYGKLYLVPTPIGNLQDMTFRSIAILKKVDYIAAEDTRNTGLLLKHFDISTRQLSFHEHNAFEKIPDLLKLLKSGNSLAQVSDAGLPSISDPGYDLVRAAIQEDIAVIALPGASAGITALIASGLAPQPHIFYGFLPRKSGQQKSFFEEKKYYPETQIFYESPYRVQETLENILSVYGDRQIVLTRELTKLYEEYQRGNISEILTYIAENPLKGECLLLVSGYDHQEKEQQVSEVELKHLVEALVKEGMKPNQAIKKVAKENDFNRQELYQLYHELQEGHHHHHH | soluble
6 | MGSDKIHHHHHHMTDQTRFFDEMTGGAPQARGPYQPYDAWFQGEDLDEIRKKSAEAEGFFRRTGITFNVYGQTEADERLIPFDVVPRIISGREWTRLTRGIEQRVRALNAFLYDIYHRQEILRAGRVPRELIDGNEAFLPQMMGVAPPGGIYTHIVGTDLVRTGEDEFFVLEDNARTPSGVSYMLENRETMLQMFPDLFSRIKVRPVQNYPANLRRSLAACAPNACTGECTVAVLTPGIHNSAYFEHAFLADQMGVELVEGHDLRVKDGRIAMRTTEGYKAIDVLYRRVDDDFLDPLNFNPDSMLGVPGIMDVYRAGGITIANAPGTGISDDKALYSYMPDIIEFYTGEKALLQNVPTHRCSEPEALKYVLDNLAELVVKEVHGSGGYGMLVGPAASKTEIEAFRKKLEANPSNYIAQPTLALSTCPILTEAGLAPRHVDLRPFVLMAPNKTTITPGGLTRVALAEGSLVVNSSQGGGTKDTWVLED | not soluble
7 | GMKRAVVVFSGGQDSTTCLIQALQDYDDVHCITFDYGQRHRAEIEVAQELSQKLGAAAHKVLDVGLLNELATSSLTRDSIPVPDYDANAQGIPNTFVPGRNILFLTLASIYAYQVGAEAVITGVCETDFSGYPDCRDEFVKALNQAIVLGIARDIRFETPLMWLNKAETWALADYYQQLDTVRYHTLTCYNGIKGDGCGQCAACHLRANGLAQYQKDAATVMASLKQKVGLR | soluble
8 | MGSDKIHHHHHHMDENEFDNQRENKAVARVIISFLKYEEYALKEIYNLRVKKWASISDRQKDMVPNYTKYLANLKAAIIENGKFFRSVAEYALQSISFEPGEIVQPNDLDMSKTCSLLTQVYREWSAEAISERNCLNSRLVPFLKTLSPPKADILIPGCGTGRLLVDLSRMGYNCEGNEFSYHMLLVSQYMLNAGLLQNQIIIYPFIHCFSHWKKIEDQLSPIKVPDIEAWSSNKGMGSMSICAGSFVDCYGRNQGTKISSHYTFSRRMQLSRAKAENSKDVVVTNFFIDTGSNILDYLDTIGHVLKPGGIWCNFGPLLYHFENDHGVETTYEVNPYSGFQDKINDYTPLMGLELSSDDIISIATNHLDFELIRRESGILCGYGRYAGPESCAMPGYMCHYWILKSNPTNES | not soluble
9 | MNRTPSLHTKEKKGFIDMHTMWKGSISFGLVNIPIKLYAATEDKDIKLRSLHKEDHAPIKYEKVCTNCEKTLSPDEIVKGYEYVKGKYVVLTDEDLKSLKQEHEEKAVEIVDFVQLQEIDPIYFNRSYFVGPGDNGTKAYTLLREALRSTGKIGIANMTIRSKQQLAILRVYENCIVMESIHYPDEVRS | not soluble
10 | MAASRALSLTAEAVRAVIPRRSGRLLTRWETTSSIPEAGEGQIRLTDSCVQVGGRTRGGGAQEGSRRLPSHPSRYLRLLGILDPLS | not soluble
11 | DPSKGRWVEGITSEGYHYYYDLISGASQWEKPEGFQGDLKKTAVKTVWVEGLSEDGFTYYYNTETGESRWEKPDD | soluble
12 | MKKAKSRIAILGTGGTIAGFIDSTIATTGYAAGAIDIDVLIKAVPQIRDLADISWEQIANIDSSNMCDEIWLRLAKKIAKLFAEGIDGVVITHGTDTMEETAYFLNLTIKSDKPVVLVGAMRPSTAISADGPKNLYNAVALVVNKEAKNKGVMVAINDKILSARGVVKTHSLNVDAFSSPDFGDLGYIVDGKVFFYNNVIKAHTKNAPFDVSKLTSLPKVDILYSYSNDGSGVAAKALFEHGTKGIVVAGSGAGSIHKNQKDVLKELLKKGLKVVVSSRVVAGCVAVSDSDEKLGFISAEDLNPQKARVLLMLALTKTSDPKKIQEYFLKY | soluble
13 | MSLRRTCVIGAGPSGLAASRVLASRGIPFDCYEAGSGIGGLWRYGNDNGMSGVYASLHANISKESMSFSSLPMPDSYPVFPHHTQVLAYLESYAETFGLHGHIGLRTEVTSVRPVEGGGWEVTRRSRGGAEAETDRYTEVVVANGHHWDPRLPDPAVPGAGVFEGSAVHAHAYRSPEPYAGQRVLVVGMGNSGCEIAAEISRSAARTFLSARAVAHVFPKMLLGRPADHWAVSRAAVLPRFLKDPGMALLLRLARGAPALYGLPEPVRRPLAAHPSTSDELLVQLARGAVTAKPGIRSFGRDSVSFTDGSRETVDAVVYATGYSLSFPFLAPAVFAAPDGRTELYLRTVPPRLPGLFFMGLAQPAGAAFPLLEPQAEWIADLIEGEVLLPTPAEMTRSIARARERHDKVYAPSYRHGIEIDICAYRRALRRELREGHHHHHH | not soluble
14 | MTTVTKHKVLLIAGPTAVGKTALSLALAKQLNGEIISGDSMQVYRHLDIGTAKIMPEEQAGIPHHLIDIKNIDQRFTVAEFVSRTTALIIDISARGKLPIIVGGTGFYLQSLLAGYQFGPADNEPDMAYRQAWFDRAAVEGSDVAWMALKQRDPQAATAIAPANLVRVVRALEYVHTTGQLFSEQADTHGDTLDAYTLCLTAERALLYTRINQRVDQMVAAGLEQEARWLFDQGGAMLPAGKGIGYHEWFPYFNGEQTRDESIAKIKQDSRRYAKRQLTWFRNKMSVDWINLLEHPELRASIDQRLASWLSLEHHHHHH | soluble
15 | MSLSDNVVTSKVGNVTEKELSKELRQQYGESTLYQMMLSKALLDKYKVSDEEAKKKVEEAKDKMGENFKSTLEQLGLKNEDELKEKMKPEIAFEKAIKATVTDKDVKNNYKPEMKVSHILVKDEKTAKEIKEKVNNGEDFAALANQYSEDTGSKEQGGEISGFAPGQTVKEFEEAAYKLDAGQVSDPVKTTYGYHIIKVTDKKELKPFDEVKDKIRKDIEQQRLQDTTGKWKQQVVNDLLKDADIKVNNKEFKDTFKFLEKEGHHHHHH | soluble
16 | MREQQPDVPPAEPANDVVAPPPLMDLGPPVNPMLPLDLPYNVVREIGIAVSSKITILLLRTPNYKLD | not soluble
17 | MGSDKIHHHHHHMLSRTASELYWMARYLERAESLARVLDVTYKLSMMPRHSQQQHDLALPLNLTMTHELFQQRYAHFSMNNLLNFFALDSENPSSIYNCIEMAWNNAHAVRGSLSSEVWECINTTRIDIRNLRHQGVDNIGINEFFDWVKERSHLFRGAMFGTLLRNDAQCFIRIGTLIERACATAQLLNVKHQQLHNDPDPVREYYRLDTLLRAVSAREAYHSIYRQPISPETVTELLVLREDVPRSLHACVGDLVLQLEAIGSQRAKVPHRLAHLLHVELRFSTLDDVLAQDLPTYLNNFIIKINELADSIRHTYLEAL | not soluble
18 | MPRDNSSSSRRRRGSKRCPTGMSSNKTSRSTSSSSVTSSSGHGASSFSEDSSVRSVTNSVRSTRSAGSIMSMASAEASVVAPDLTIYHGDRKQSYQLADKGKMVVINRKNGVIVYMLRCVDGRRVYIEKSSEGASLILTNQRGKVIKALAGHY | not soluble
19 | MPGVEPYEPLQLMGRDVYIREGCVGCHSQQVRTLQAEVQRYGPYSVAGESVFDHPFLWGSKRTGPDLARVGERYSDEWHRIHLRDPRAVVPESNMPAYPWLQHADLTGQNVAQRMQALRRLGVPYTDEAIAAAPAAIAGKTEEDALVAYLQALG | not soluble
20 | MSLDNTEQEKFETYDLDVETVYCRPIIKFPLLLIHAYRVYLALNDHNDIEPRLHSDRLLEIFDPLINGDEQSVKLFIETLWQVRYQFDRWVVKWVERDDATDAQLGLTYQSRSKSNDTYYINRTQKELTDIVLLQSVRNFTGERSAQYWLTPFLSGLIRSSIKQDSVALELLENIDNKMSLSVDTQKEASFALAEGIEPNCQSWQSQSTYFAKSLGTSFEHYWFQKLEYLIWKKMKASESSLPSEELNKFKKYRITSKNSVEHVHPQNDEYNSRLDCETLNSFGNLVLLSPGENSSYSNQDVDKKRIDFERKSHFDALKLREIFGVKGQGLWGKQQIDNHLEDMMAVFAQHYKEGHHHHHH | not soluble
21 | MGHHHHHHSHMREPWLFGEEHTRLIREAIRERYGLLPYWYSLFYHAHVASQPVMRPLWVEFPDELKTFDMEDEYMLGSALLVHPVTEPKATTVDVFLPGSNEVWYDYKTFAHWEGGCTVKIPVALDTIPVFQRGGSVIPIKTTV | soluble
22 | MMETEVAVVPLTPLDIHNKEFSRGFRGYDEDEVNEFLDQVIKDYEMLIREKKQLEEKVAELTEKLNYFANIEETLNKSILVAQEAAEEVKRNAQKEAKLIIKEAEKNAERIISDALAKSRKIALEIEELKRQSKVFRARFRMLVEAQLDMINSRDWDELMEYEAPDLEEGAREPLSQP | not soluble
23 | MKKVFDVWDVETAKRFLEIIKDEPIYYPALIALHTGMRAGEILSLKWCDVNFETRVISIVKSERKNRGLKTVNLKTKTSKRAVYMNDILYKELKNLYEITKPKPDDFVCPRLPTGNLTVNYLSRKFKKLVKKHNFPLIRFHDLRHTFATLMLSLGVNTKIVAEILGHSDIKLTADTYSHVLPTMQEEAMKEFVKLWKLEHHHHHH | soluble
24 | MENSGHKVYYCMGSPLFALNAGRMENNLVAFSGGLSINKQLQKEGKPGINVSPSFINENNPDTIFISGFLSRPLDEFYTLCRQYGIETDAVKQQRVYEVPPSWDFGNPRWILGLMYIADKLYPGNSGIDLEKEADEFYRQFYGMPYLEHHHHHH | soluble

From the DeepSol protein solubility set
